This series is described as follows: soluble on expression in E. coli; label from the status in PepcDB or PDB records.
For the sequence “MGSDKIHHHHHHMKASVIIPAYNSKERLYNSLLSLNQQECDEEFEVIVADNGSEDGTLSMLESFQADFPLIFTRIKENRGIAYGRNQALRNARGDILIFHDSDMLAAKDLVAKHIKAHENEENLVVCGLFWKRIYSFYYERFEEEHKEQLAKLTGEMPKKDKQKLLEEADIKNGSFLDKSFDLDTDFIDVLKKILDEYGDDLKGYHMPWRFFITNNSSVKRKHVVDLGLFDEGIVRYGFEDYDLGIRLHQAGLTFRLRRDIVSVHQEHPSNCKSVDDIRANIAYMCDKYNNIRSLDVHLAFNGPFPPDMTNRIMADIQKLLESQKYDMLLNLFLELLHVVKERNIDPDWRKKSPRVTAKSFDLQTVRKLLPKAKKKLGVNDFANALYALVNDLLHVDLRSLDVV”, the “soluble on expression in E. coli” value is on record as “not soluble”.
Turning to “MGHHHHHHHSSENLYFQGHMRKIRVGLIFGGKSAEHEVSLQSARNILDALDPQRFEPVLIGIDKQGQWHVNDPDSFLLHADDPARIALHRSGRGVALLPGAQQQQLRPIQPEQALAQIDVVFPIVHGTLGEDGSLQGLLRMANLPFVGSGVLGSAVAMDKDMAKRVLRDARLAVAPFVCFDRHTAAHADVDTLIAQLGLPLFVKPANQGSSVGVSQVRTADAFAAALALALAYDHKVLVEAAVAGREIECAVLGNAVPHASVCGEVVVHDAFYSYATKYISEHGAEIVIPADIDAQTQQRIQQIAVQAYQALGCAGMARVDVFLCADGRIVINEVNTLPGFTRISVYPKLWQASGLDYRGLITRLIELALERHTDDQLLRSAVELH”, the “soluble on expression in E. coli” value is recorded as “soluble”.
For the sequence “MGPRFQPDDTLYKRRNTLKVEYVPDDIVGRDNEIEEYEAALQPIINGEYPDNIFIYGKTGVGKTAVTNFLLNELRESADHFEVDLTVISLNCDGLSTSYQAAISLVNNLRGHENHIAETGHPQSKVYRLLWNELNKLSGSVIIVLDEIDHITDDTFLYQITRADNNGYIDNIQLGVIGISNDSTFREQLDAKVQSSLCETEISFPPYGTEELQKVLEQRAEIAFHESALEDGVIPLCAALGRQDGGDARRAITLLRKAGDLARTENANSVTTDHVERAQEKLEAQQSMDIMRDLTEHEQLTLYALTTLAAEGETPARSRIVYQRYKELCEFQGREPRTARRMRSFLSDFEILNLTLSEMEHRGQDGGTYRQHELNRDIATVVDALQTIIGEFGAHQSIIEYLPDSGEEFATM”, the “soluble on expression in E. coli” value is “not soluble”.
The entry for “REEDPHEGKIWFHGKISKQEAYNLLMTVGQVCSFLVRPSDNTPGDYSLYFRTNENIQRFKICPTPNNQFMMGGRYYNSIGDIIDHYRKEQIVEGYYLKEPVPMQDQ” is “soluble”; for “MTTSLHRLEALAHPARVRIVRLLAELPDEETAKDPRCGTAYGVCFCHLKEKTGLSAPTVSHHLRILREAGLVEGVRVGRWTYYRLRPGALEAVARELLGLAQRARALEERSA” it is “soluble”; for “MQTNLERIKKHIEKLDTFTATPGQGTTRLTYSKEDLDARNYLKQEMAKVGLTVSEDAIGNIYGRLEGESPDLPAVIVGSHFDSVPNGGAFDGPAGVITGLEVASVFHEQQIKPHFPLEIIAMVEEEGSRFGAGLLASRAITGKVTTEMLHEMKDIDGITATDAMAKLGFNANRVHRAIRTKESVKAFIELHIEQGPILENASEDVALVDTVVGLTQIKVTVKGQAGHAGTTPMLDRKDALVSAVEILGQLPELAIQEGGGTVLTVGKLNVYPNGANVIPDKVIFTVDIRAKDEIHVQNTLAKTKEIIQATEKNGITCEIKDMIYQQPTHLSKEIHQALTESADQLGFKYRTMVSGAGHDAMIFASLTEVGLIFVPSHNGISHAPEEWTDYDKLQKGIEVVLKTVKKWTEESANESENKTNSFK” it is “not soluble”.
Take “MSLKNIVFDFGGVIVDIDRDKAVQAFIKLGLADADTRLDKYHQTGIFQELEEGKLSADEFRKQLGDLCGRELTMEETKQAWLGFFNEVDLRKLDYILGLRKSYHVYLLSNTNPFVMSWACSPEFSSEGKPLNDYCDKLYLSYQLGHTKPAPEIFDFMIKDSHVIPSETLFVDDGSSNIHIGKELGFETFQPENGADWRQELTVILNSEGHHHHHH”: the “soluble on expression in E. coli” value was “soluble”.
As to “MGSDKIHHHHHHMGKIISKFVCHECGYETPKWLGKCPGCSAWNSLLEESISNKPLRRTAERVAAIPLNQLSAEDSPRFSSGLSEFDRVLGGGIVPGSLILLGGDPGIGKSTLLLQVAGLIAAAGKRILYLSGEESLQQIRLRASRLGINNDTIFLLNEQDIDLLHEYINDLDPDLIIIDSIQTVYSSKLSSIPGSVSQLRESTAAVMQIAKKMDKAVFLVGHVTKDGSLAGPKVLEHIVDVVVYFEGEKNFSFRLLRAAKNRFGATDEIALLEMSGQGLVEVPDPSYVFLSPGRDISSGTAIVASMEGSRPLLIEIQALVSSLGAGYPRRMVSGIDQNRLSLIIAVLEKRRGYTLSACDVYLKVSGGVFLKDPSVDLGIAAAVLSSYLEKPLAMDTVFIGEISLSGQIRPVSFLDLRLREIDRMGYKRVIVPTSPGRLAKSSHNMEILEVKSLDHFIDIVLEG”, the “soluble on expression in E. coli” value was “not soluble”.
Turning to “MGSSHHHHHHGGTGENLYFQGGSGMADERFDSMLLAIAQQQQGIDGILDTFFSFLNRKTDFFTQPDMARRSVQQAMSRYLAEAEEKQRKAKEAQAAAQQQQQQQQQSARTSSRVEVLESEEEVNAVAAAQAAEEAAQRKQELERAQREVAEAKAKKEAAGNEAETGATEAFADTGDAPRGLPPTAANGFAYEKYIFSQSLQEAEVRVPLPAVNVKGKQVSIVITSSHLTVGMKGQPPIVDGDLYSKVRAEECMWTIEDGHTVVVTLYKVNSMEWWKTIFQGDPEIDLQKVIPENSKLDDLDSDTRQTVEKMMYDQRQKMMGKPTSDEQKKQDMLRKFMEAHPEMDFSQAKFC”, the “soluble on expression in E. coli” value was “soluble”.
The entry for “MSLTLKTTEDLFQQSLHEYTITHAIEDKNVLRFHVDYYKPDGKSTPKPGETLAKRAVVDAILSKHDAATGGRRFNAILATASINDAIGYFGLFKTAQAEKQRVEPGYVPLNIAAVFSPPSDVSADVRQLQEDLPQEQEDNKKDSDAKKAALKAIIGDYNTRFGTNHRIEEFDAYYQDVQQRIKDQQFPNADLPDKGREKLDIVIVVDMLLTGFDSKYLNTLYVDKNLKYHGLIQAFSRTNRVLNDTKPYGNILDFRGQQKEVDAAIALFSGAKADKAREIWLVDTAPVVIDKLKEARGSLDSFLASQGLGGKPEDIANLKGTAAKVAFIKHFKDVQKLQTQLDQYTDLTAEQQAQVEAILPKDELRSFRGQYLQKAEELRADQKKAGEGHHHHHH” is “soluble”; for “MQSWYLLYCKRGQLQRAQEHLERQAVSCLTPMITLEKMVRGKRTSVSEPLFPNYLFVEFDPEVIHTTTINATRGVSHFVRFGAHPAIVPSSVIHQLSIYKPEGVVDPETPYPGDSVIITEGAFEGLKAIFTEPDGETRSMLLLNLLNKEVKQSVKNTGFRKI” it is “not soluble”.
Turning to “MGSDKIHHHHHHMQKPCIATPFSSYQETVPSLLQAVGAPGLLSRQSCILIKPNLVNASPPPVTLPVAACEALVAACRRWSKARIVIAEGSGDRDLSTGEIFQRLGYERLARRYDVDLVDLNNAELVELQNPLCEVFPTFMMPRMVMDSFVISAAVLKAHSLAEVTLSMKNMIGVAPPAYYQQGGHWKKSAFHAQMHRSIFELNRYRKPDLAFIDASVGLAEYHLGGPTCEPPVDKLLAGFDPVAVDAAGSELLGIPWQQVEHIRLADGLLGRAGK”, the “soluble on expression in E. coli” value is listed as “not soluble”.
Turning to “MIDHAHLRLFQFCDSQFPTGAFSHSFGLETYIQRDTVHDEESFQQWLVLFLNEQLTYADGLTMRLVYDALNENDTKAILKLDRILFVQNLPKETRQGSKQMGNRMVKLASELYDSDWINWYHAQMKDKKASLHPAICFTMLGHHLGVDIETIIDYYLYQNVSSLTQNAVRAIPLGQTAGQRIVHKMIPIMKETRDHIMTIPASQLGITAPGLEINQMEHENVNVRIFISLEHHHHHH”, the “soluble on expression in E. coli” value is reported as “not soluble”.
Take “MNTEICSILERQARIFNVQKYSLYDGPGIRTLIFFKGCPLRCKWCSNPEGLERKYQVMYMEDSCIHCGNCIPVCPVNIHSFANRDGETVPTHYEPPKHTINRNIDCVGCRKCETICPKKALSIAGKDLKISEVLEIIQQDALFYLSSGGGVTLGGGEVTAQPEFATNLLMECQRMGINTAIETCGYAKLDTLLMIAQFTDLFLYDLKHIDPERHYELTGVRNERILDNLTELIHRGFNIKIRMPLIRGMNDSQDTIRRTMEFLQPFSSCKNFQGIDLLPYHKLGINKYKQLDMNYTITEDLSFKAEELDEIARIIGGYDLRAAVIRH”: the “soluble on expression in E. coli” value is on record as “not soluble”.
As to “MTSGLERLSNLLSKKDSVFVSDLLREAKVNELDETLSTTRLNHLIDKGYERITLQLDLGGESPGYLEKDKHYREADAALLNVIYPTNLSKINTRRKEQV”, the “soluble on expression in E. coli” value was “not soluble”.
The entry for “MSQSLFSLAFGVGTQNRQEAWLEVFYALPLLKPSSEIVAAVAPILGYAAGNQALTFTSQQAYQLADALKGIDAAQSALLSRLAESQKPLVATLLAEDAAPSSTAEAYLKLHLLSHRLVKPHAVNLSGIFPLLPNVAWTNIGAVDLAELAELQLEARLKGKLLEVFSVDKFPKMTDYVVPAGVRIADTARVRLGAYIGEGTTVMHEGFVNFNAGTEGPGMIEGRVSAGVFVGKGSDLGGGCSTMGTLSGGGNIVISVGEGCLIGANAGIGIPLGDRNIVEAGLYITAGTKVALLDEQNALVKVVKARDLAGQPDLLFRRNSQNGAVECK” is “not soluble”; for “MRCMTLPAYDIAILGAGPVGRVLALLLARLTPQPQRIALLQGGAGLPPTPAGTLGPAADPRVLALNHGSRVLLESLRAWPAHAAEIRHIHVSQRGRLGRTVIDREDFDVPQLGNVVAYAALHAQLEQAVQDCGVTVLSGPPARVDGQDGEGLTVRQGDAALHCRLAVQCDGAGGSDVRRDYAQHAVLTSAHATLPRSGWAWERFTNEGPLAMLPHPQTPEAYSVVWCCAPPRAQRLAGLDDEAFSRELTEAFGTRLGRLRSAAPRHVFPLELKARHAQAHGRLATIGNAAQTLHPVAGQGLNLGLRDAAQLAHALPDWLAAPQADPSPLLAAFARARLADRWVTAGLTDLMPRIFATGLAPVEHACGLALLGLDIAAPLRAPLARHLLQGLRV” it is “not soluble”; for “MEDNIRIGKIILNLSNKISRQLNKEASAFGLTGVQAKLIGFIHHRSSTQDIFQKDIEEEFDIRRSSVTSALQLMEKKGYIKRVSVSDDARLKKIVLTEKGLELDKKVYDAIIKLENSLINEFDNDELHVLIDSLDRISKKIVDLEHHHHHH” it is “soluble”.
The same measure for “MRRFLTLTVALGFLSACEVSDPGPVAPLPKVPDSPPMSASAAQSAFASVSARVRPVAVRECQQRTQGANCDFKIQIDPDPKAPVNAYQTVGKNGQPLIIFTRSMIATARNADELAFVMGHEAAHHIRGHLARQNASAIAGAVILGGLVGLAGGGASTIDAATQIGASVGARTYSKEYELEADELGTVITHKAGYNPLVGAHFFSRIPDPGDRFLGSHPPNAARIQTVQRTAGSLGLTQLEHHHHHH”: “not soluble”; for “MSLSDGDYDYLIKFLALGDSGVGKTSVLYQYTDGKFNSKFITTVGIDFREKRVVYRASGPDGATGRGQRIHLQLWDTAGQERFRSLTTAFFRDAMGFLLLFDLTNEQSFLNVRNWISQLQMHAYCENPDIVLCGNKSDLEDQRVVKEEEAIALAEKYGIPYFETSAANGTNISQAIEMLLDLIMKRMERCVDKSWIPEGVVRSNGHASTDQLSEEKEKGACGCEGHHHHHH”: “soluble”.

(Values after the DeepSol protein solubility set.)
